{"source": "patent US20120270271A1", "about": "(University of Washington, published 2012)", "binders": {"B1": {"name": "Tsi2-V (type VI secretion immunity protein 2 fused to the vesicular stomatitis virus G epitope) (other)", "chain": "MNLKPQTLMVAIQCVAARTRELDAQLQNDDPQNAAELEQLLVGYDLAADDLKNAYEQALGQYSGLPPYDRLIEEPAS"}}, "biological_target": "T1, Tse2 (type VI secretion exported protein 2) with glycogen synthase kinase (GSK) tag (Pseudomonas aeruginosa PAO1, UniProt Q9I0E0 1-158)", "T1 construct": "Toxin as detected in the co-immunoprecipitation in P. aeruginosa lysate; it is placed last here only by default; also called PA2702; not shown: GSK tag used for detection", "T1 sequence": "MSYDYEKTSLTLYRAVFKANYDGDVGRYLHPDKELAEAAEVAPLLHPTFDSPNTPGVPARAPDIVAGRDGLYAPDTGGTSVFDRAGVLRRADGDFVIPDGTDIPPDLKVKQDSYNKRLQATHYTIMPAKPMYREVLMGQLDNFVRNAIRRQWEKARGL", "assay": "co-immunoprecipitation from P. aeruginosa lysate with anti-VSV-G agarose beads, Western blot for GSK-tagged Tse2"}
{"binder": "B1", "values": [{"measurement": "binding result", "value": "binds"}]}
